Patent publication US20220332829A1 (NANJING SANHOME PHARMACEUTICAL, published 2022)

What was measured:
[1] = target: T1, human 2Ig-B7-H3-His protein (human, UniProt Q5ZPR3 29-463); experiment: ELISA, plate coated with human 2Ig-B7-H3-His, detection with anti-human IgG HRP, OD450
T1 sequence: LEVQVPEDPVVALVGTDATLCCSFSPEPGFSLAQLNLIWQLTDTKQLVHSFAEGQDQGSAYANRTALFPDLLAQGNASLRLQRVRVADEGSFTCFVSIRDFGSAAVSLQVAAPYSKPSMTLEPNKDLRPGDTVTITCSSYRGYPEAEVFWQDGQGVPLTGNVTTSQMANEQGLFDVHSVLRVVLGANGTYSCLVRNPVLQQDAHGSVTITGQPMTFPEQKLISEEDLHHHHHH
Method: (§1) The binding activity of antibodies was analyzed by ELISA. 96-well ELISA plates were coated with human 4Ig-B7-H3-His protein or 2Ig-B7-H3-His protein (1 μg/well, prepared in Examples 1 and 2) and incubated overnight at 4° C. The plates were washed 3 times with 1×PBST and then blocked with 5% skim milk at 37° C. for 2 h. After washing 3 times with 1×PBST, the anti-B7-H3 antibody of the present disclosure was used as the primary antibody and added to the ELISA plates in 5-fold gradient dilution starting from 2 μg/mL with a total of 8 concentrations: 2,000 ng/mL, 400 ng/mL, 80 ng/mL, 16 ng/mL, 3.2 ng/mL, 0.64 ng/mL, 0.128 ng/mL and 0.0256 ng/mL respectively. The plates were incubated at 37° C. for 2 h with hBRCA84D as the positive control antibody. After washing 5 times with 1×PBST, Anti-Human IgG HRP (Jackson, 109-035-003, 1:5000) was used as the secondary antibody and incubated at 37° C. for 1 h. After washing 5 times with 1×PBST, color developing solution TMB was added to the plate, and microplate reader (Thermo, Multiskan FC) was used to read OD450 value after termination of the reaction. EC₅₀ was generated by GraphPad.

[2] = target: T2, B7-H3 on surface of tumor cell (786-0, MDA-MB-231, Raji-B7-H3 cells) (human, UniProt Q5ZPR3 29-534); experiment: FACS on Raji-B7-H3 cells
T2 construct: whole, on cells; The making of Raji-B7-H3 cells is not described; also called B7-H3 on the surface of tumor cells; human B7-H3
T2 sequence (looked up): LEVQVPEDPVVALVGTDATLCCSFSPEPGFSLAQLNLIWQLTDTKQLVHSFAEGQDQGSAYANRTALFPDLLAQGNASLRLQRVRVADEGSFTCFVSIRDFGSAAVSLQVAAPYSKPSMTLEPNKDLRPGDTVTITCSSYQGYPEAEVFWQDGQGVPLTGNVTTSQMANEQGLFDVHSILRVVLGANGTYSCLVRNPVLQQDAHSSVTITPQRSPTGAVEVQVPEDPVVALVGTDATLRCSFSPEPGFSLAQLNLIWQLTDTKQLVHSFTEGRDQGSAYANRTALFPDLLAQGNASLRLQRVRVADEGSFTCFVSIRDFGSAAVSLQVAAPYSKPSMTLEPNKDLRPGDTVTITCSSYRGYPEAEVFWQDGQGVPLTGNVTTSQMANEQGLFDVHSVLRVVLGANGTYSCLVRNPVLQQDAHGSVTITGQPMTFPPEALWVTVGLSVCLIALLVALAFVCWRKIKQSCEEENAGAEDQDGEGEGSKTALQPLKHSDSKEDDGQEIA
Method: (§2) The binding activity of antibodies to B7-H3 on the surface of tumor cells was analyzed by FACS. Mean fluorescence intensity (MFI) and EC₅₀ detected by FACS indicate the binding activity of the antibody to cells. After 786-0 and MDA-MB-231 cells were digested, they were resuspended in 2% FBS-PBS solution and counted. After raji-B7-H3 cells were collected, they were resuspended in 2% FBS-PBS and counted. The above cells were plated in a cell plate with 1×10⁵ cells per well. The anti-B7-H3 antibody of the present disclosure was used as the primary antibody and added to cell plates in gradient dilution starting from 20 μg/mL with a total of 8 concentrations: 20,000 ng/mL, […], 2,000 ng/mL, 400 ng/mL, 80 ng/mL, 16 ng/mL, 3.2 ng/mL, and 0.64 ng/mL respectively. The plates were incubated at 4° C. for 1 h with hBRCA84D as the positive control antibody. PE-Anti-Human IgG (Biolegend, Cat. No. 409303, 1.25 μl/well) was used as the secondary antibody, washed, and detected for the fluorescence intensity generated by the binding of the antibody to the cell surface by a flow cytometer.

[3] = target: T3, human 4Ig-B7-H3-His protein (human, UniProt Q5ZPR3 29-466); experiment: ELISA, plate coated with human 4Ig-B7-H3-His, detection with anti-human IgG HRP, OD450
T3 construct: also called human B7-H3 protein
T3 sequence: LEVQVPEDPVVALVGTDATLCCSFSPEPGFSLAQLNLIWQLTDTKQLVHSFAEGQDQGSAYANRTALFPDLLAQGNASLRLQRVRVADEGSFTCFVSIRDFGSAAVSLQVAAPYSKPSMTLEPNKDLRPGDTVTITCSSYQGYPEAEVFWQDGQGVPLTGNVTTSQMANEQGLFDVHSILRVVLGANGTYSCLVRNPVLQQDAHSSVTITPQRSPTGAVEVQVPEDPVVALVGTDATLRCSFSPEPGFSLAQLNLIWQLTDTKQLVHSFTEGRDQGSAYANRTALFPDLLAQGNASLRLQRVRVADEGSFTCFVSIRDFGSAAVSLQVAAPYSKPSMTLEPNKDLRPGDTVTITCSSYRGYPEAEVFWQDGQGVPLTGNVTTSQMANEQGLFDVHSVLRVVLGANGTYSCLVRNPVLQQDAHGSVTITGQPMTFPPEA
Method: as §1

[4] = target: T3, human 4Ig-B7-H3-His protein; experiment: Biacore X100 SPR, 4Ig-B7-H3-His coupled to CM5 chip, antibody injected
Description: The humanized anti-B7-H3 antibodies prepared in Example 4 were subjected to affinity assay by Biacore. The antigen 4Ig-B7-H3-His was first coupled to the surface of a CM5 chip (GE, Cat. No. BR100012), and the active groups of the uncoupled protein were blocked with ethanolamine. After the baseline was stable, the hu39-01, hu65-13, and hBRCA84D antibodies were respectively diluted in equal proportions. The diluted antibodies of each concentration were placed on the sample injection tray of the instrument in sequence, and the program was set to inject samples respectively.

[5] = target: T2, B7-H3 on surface of tumor cell (786-0, …); experiment: FACS on MDA-MB-231 cells
Method: as §2

[6] = target: T2, B7-H3 on surface of tumor cell (786-0, …); experiment: FACS on 786-0 cells
Method: as §2

[7] = target: T4, Cynomolgus B7-H3-His (Sino Biological, Cat. No. 90806-C08H) (cynomolgus monkey); experiment: ELISA, plate coated with cynomolgus B7-H3-His, detection with anti-human IgG HRP, OD450
T4 construct: Bought reagent; also called cynomolgus monkey B7-H3; monkey B7-H3
Method: The binding activity of antibodies was analyzed by protein based ELISA. Cynomolgus B7-H3-His (0.5 μg/well, Sino Biological, Cat. No. 90806-C08H) was coated on 96-well ELISA plates. The anti-B7-H3 antibodies of the present disclosure was used as the primary antibody and added to the ELISA plates in 5-fold gradient dilution starting from 2 μg/mL with a total of 8 concentrations: 2,000 ng/mL, 400 ng/mL, 80 ng/mL, 16 ng/mL, 3.2 ng/mL, 0.64 ng/mL, 0.128 ng/mL, and 0.0256 ng/mL respectively. The plates were incubated at 37° C. for 2 h with AB06.12-4P as the positive control antibody. Anti-Human IgG HRP (Jackson, 109-035-003, 1:10,000) was used as the secondary antibody. Color developing solution TMB (3,3′,5,5′-tetramethylbenzidine) was added to the plate, and microplate reader (Thermo, Multiskan FC) was used to read OD450 value after termination of the reaction. EC₅₀ was generated by GraphPad.

EC50 (read off the curve) [1]: ~0.005 µg/mL
EC50 [2]: 0.12 µg/mL
Mean fluorescence intensity (MFI) [2]: 584000
EC50 (read off the curve) [3]: ~0.005 µg/mL
Kd [4]: 0.49 nM
koff [4]: 0.000385 s⁻¹
kon [4]: 785000 M⁻¹ s⁻¹
EC50 [5]: 0.0501 µg/mL
Mean fluorescence intensity (MFI) [5]: 156000
EC50 [6]: 0.12 µg/mL
Mean fluorescence intensity (MFI) [6]: 584000
EC50 (read off the curve) [7]: ~0.006 µg/mL
B1: hu51-G34K-12 (antibody, human IgG1, V domains shown)
VH: EVQLVESGGGLVKPGGSLRLSCAASGFTFSSFGMSWVRQAPGKGLEWVATINSGDNYSYSPDSVKGRFTISRDNAKNSLYLQMNSLRAEDTAVYYCARPHIFYYGSPAWFAYWGQGTLVTVSS
VL: DVVMTQSPLSLPVTLGQPASISCRSRQSLVHSNKNTYLHWFQQRPGQSPRLLIYKVSNRFSGVPDRFSGSGSGTDFTLKISRVEAEDVGVYYCSQSTHVPLTFGGGTKVEIK
notes: expressed in HEK293E; also called humanized anti-B7-H3 antibody hu51-G34K-12
